Results on 1 substance are retold here after paper PMC5972394.

In the test the target is Mycobacterium thermoresistible (Mth) IMPDH ΔCBS (Mycobacterium thermoresistible). The experiment in a line: crystal structure.

Substance “Mycobacterium thermoresistible (Mth) IMPDH ΔCBS (enzyme)” displayed a stoichiometry N of 4.

The stoichiometry N is the number of molecules, sites or subunits per partner or assembly.
